Assays:
[1] = biological target: T1, Tet(X7) (human gut metagenome, UniProt Z9HWK3IZF4); assay type: binding; details: FAD in IN-conformation
[2] = biological target: T1, Tet(X7); test: absorbance, initial velocity of tigecycline degradation; assay type: biochemical; details: read-out: IC50 (apparent)
[3] = tested on: CN(C)c1cc(NC(=O)CNC(C)(C)C)c(O)c2c1C[C@H]1C[C@H]3[C@H](N(C)C)C(=O)C(C(N)=O)=C(O)[C@@]3(O)C(=O)C1=C2O; test: purified protein; details: 0-40 µM substrate, 504 µM NADPH, 5.04 mM MgCl2, 0.4 µM enzyme, 100 mM TAPS pH 8.5, room temperature
[4] = tested on: CN(C)c1cc(CNCC(C)(C)C)c(O)c2c1C[C@H]1C[C@H]3[C@H](N(C)C)C(=O)C(C(N)=O)=C(O)[C@@]3(O)C(=O)C1=C2O; test: purified protein; details: 0-40 µM substrate, 504 µM NADPH, 5.04 mM MgCl2, 0.4 µM enzyme, 100 mM TAPS pH 8.5, room temperature
[5] = tested on: CN(C)[C@@H]1C(=O)C(C(N)=O)=C(O)[C@@]2(O)C(=O)C3=C(O)c4c(O)c(NC(=O)CN5CCCC5)cc(F)c4C[C@H]3C[C@@H]12; test: purified protein; details: 0-40 µM substrate, 504 µM NADPH, 5.04 mM MgCl2, 0.4 µM enzyme, 100 mM TAPS pH 8.5, room temperature

T1 sequence (Z9HWK3IZF4 21-399 limits assumed): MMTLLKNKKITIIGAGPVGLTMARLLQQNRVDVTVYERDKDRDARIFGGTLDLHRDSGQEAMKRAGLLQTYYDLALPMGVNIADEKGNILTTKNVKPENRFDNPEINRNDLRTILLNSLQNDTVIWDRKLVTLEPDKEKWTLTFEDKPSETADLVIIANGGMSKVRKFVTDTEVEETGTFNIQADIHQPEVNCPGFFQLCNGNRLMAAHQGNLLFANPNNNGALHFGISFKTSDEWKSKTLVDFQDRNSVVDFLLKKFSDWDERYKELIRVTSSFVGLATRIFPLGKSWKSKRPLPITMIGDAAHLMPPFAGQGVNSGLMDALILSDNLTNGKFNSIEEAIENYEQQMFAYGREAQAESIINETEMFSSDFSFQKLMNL

For `Cc1cc2nc3c(=O)[nH]c(=O)nc-3n(C[C@H](O)[C@H](O)[C@H](O)COP(=O)(O)OP(=O)(O)OC[C@H]3O[C@@H](n4cnc5c(N)ncnc54)[C@H](O)[C@@H]3O)c2cc1C` [FAD], the “X-ray crystal structure, 2.55 Å” value [1] was “The FAD in Tet(X7) retains an IN-conformation”.

`CN(C)[C@@H]1C(=O)C(C(N)=O)=C(O)[C@@]2(O)C(=O)c3c(cc4c(Cl)ccc(O)c4c3O)C[C@@H]12` [anhydrodemeclocycline] showed an IC50 [2] of 260 ± 40 nM.

`Cc1c2c(c(O)c3c(O)cccc13)C(=O)[C@]1(O)C(=O)C(C(N)=O)=C(O)[C@@H](N(C)C)[C@@H]1C2` [anhydrotetracycline] was tested, and the IC50 [2] was 1060 ± 108 nM.

Work on Tet(X7) (uncultured bacterium) yielded a Km [3] of 4 ± 0.4 µM, a kcat [3] of 0.005 ± 0.00017 s⁻¹ and a Km [4] of 4 ± 0.4 µM. It also gave a kcat [4] of 0.0033 ± 0.0001 s⁻¹ and a Km [5] of 6 ± 1 µM.
